{"source": "patent US8138148B2", "about": "“GDNF derived peptides” (Copenhagen University, priority 2005, dated 2012)", "molecules": {"B1": {"name": "GDNF: glial cell line-derived neurotrophic factor, full-length protein used as stimulus (protein)", "chain": "SPDKQMAVLPRRERNRQAAAANPENSRGKGRRGQRGKNRGCVLTAIHLNVTDLGLGYETKEELIFRYCSGSCDAAETTYDKILKNLSRNRRLVSDKVGQACCRPIAFDDDLSFLDDNLVYHILRKHSAKRCGCI"}}, "type_in_all_cases": "cell-based, rat", "key": {"[1]": {"test_system": "hippocampal neurons", "assay": "Neurite outgrowth assay, co-cultures of hippocampal neurons on control fibroblasts or NCAM-expressing fibroblasts", "conditions": "24 hours", "description": "(§1) Two different versions of the neurite outgrowth assay were used in this study, monocultures and co-cultures.\n(§2) In monocultures, neurons are grown directly on plastic and the only neuritogenic stimulus is the one presented by the added substance. In co-cultures, neurons are grown on top of a confluent monolayer of fibroblasts expressing NCAM-140 (LBN110) or NCAM-negative control fibroblasts (LVN212). NCAM on the neurons interact with NCAM on LBN110 cells thereby stimulating neurite outgrowth from the neurons. This system thus permits the study of NCAM-NCAM interactions and interactions between NCAM and other molecules.\n(§3) For all experiments cells were grown in neurobasal medium with supplements as described above in a final volume of 300 μl/well in 8-well LabTek® Permanox Chamber slides or 500 μl/well in 4-well LabTek® Permanox Chamber slides.\n(§4) For cocultures, L-cells were seeded in 8-well LabTek® Permanox Chamber slides at a density of 100.000 cells/well, except for transfection experiments where cells were seeded in 4-well LabTek® Permanox Chamber slides at a density of 200.000 cells/well. L-cells were grown for 24 hours in DMEM supplemented with 10% (v/v) FCS, 1% (v/v) glutamax, 100 U/ml penicillin, 100 μg/ml streptomycin, 2.5 μg/ml fungizone, and 567 μg/ml neomycin (G418), followed by washing twice in neurobasal medium with supplements before primary hippocampal neurons were seeded at a density of 7.000 cells/well in 8-well slides or 20.000 cells/well in 4-well slides.\n(§5) To evaluate the effect peptides on neurite outgrowth, GDNF and the peptides, G1, G2, G3, A1, A2, A3, N1, N2 and N3 were diluted to the appropriate concentrations and added to the neurons approximately 10 minutes after seeding. Medium alone was added to controls, and cells were incubated for 24 hours.\n(§6) Neurite outgrowth experiments were terminated after the stated time by fixating the cells. To visualize neurons and their neurites, immunostaining of GAP-43 was performed. This staining is specific for neurons. Transfected cells and their neurites should be visible without immunostaining due to the fluorescence emitted by GFP. […] GFP is a cytoplasmic protein, and since thin neurites only contain a small volume of cytoplasm, GFP is only found in small amounts in most neurites. Therefore, a double-staining protocol, where cells were immunostained against GFP and GAP-43, was adopted. This protocol allowed the identification of transfected cells on the basis of GFP-staining in combination with visualization of neurites based on GAP-43-staining.\nWithout prior removal of the medium 300 μl/well (8-well slides) or 500 μl/well (4-well slides) of a PBS solution containing 0.4 mM CaCl2, 0.05 M sucrose and 8% (v/v) formaldehyde was added to the cultures for 20 minutes. Cells were then washed 10 minutes in PBS followed by washing in PBS with 1% (w/v) BSA for 20 minutes, after which cells were incubated with primary antibodies overnight at 4° C.\nRabbit anti-rat GAP-43 antibodies were diluted 1:1000 for staining of untransfected cells and 1:2000 for staining of transfected cells. Mouse anti-GFP antibodies were diluted 1:1000. Antibodies were diluted in a PBS solution containing 7% (v/v) FCS to block unspecific binding, 50 mM glycine to block formaldehyde used for fixation, 0.2% (v/v) saponin to permeabilize cells, and 0.02% (v/v) NaN3 to preserve antibodies for later use.\nThe next day cells were washed 10 minutes in PBS followed by washing in PBS with 1% (w/v) BSA for 20 minutes. Cells were then incubated with secondary antibodies diluted in PBS with 1% (w/v) BSA for one hour at room temperature. Goat anti-rabbit IgG antibodies conjugated to Alexa 488 were diluted 1:1000 for untransfected cells and 1:2000 for transfected cells. Goat anti-mouse IgG antibodies conjugated to Alexa 546 were diluted 1:1000. Finally cells were washed 3×7 minutes in PBS and mounted with fluorescent mounting medium. […]"}, "[2]": {"test_system": "hippocampal neurons", "assay": "Neurite outgrowth of hippocampal neurons transfected with dominant negative FGFR", "conditions": "10 ng/ml GDNF or 3 μg/ml GDNFp1, 18 hours, dnFGFR vs empty vector", "description": "as §4\nAdditionally, neurons were transiently transfected with a dominant negative version of the FGFR (dnFGFR), As an alternative to the use of a pharmacological FGFR inhibitor, The dnFGFR plasmid encodes an FGFR that lacks the kinase domain. This mutant receptor inhibits the function of wild type FGFR by engaging in dimers that lack kinase activity. Transfection with an empty vector served as control. Transfection was also done with wtFGFR in order to assess the effect of overexpressing the FGFR.\nTransfections were performed with a Nucleofector™ device and a Rat Neuron Nucleofector™ kit (Amaxa Inc., Gaithersburg, Md., USA). This transfection method is based on electroporation in combination with a Nucleofector™ solution containing lipophilic agents. These agents form liposomes containing the plasmid DNA, which then enter the cells during electroporation. The method allows transfection of undividing cells such as neurons. 3 μg of the plasmid of interest was mixed with the Nucleofector™ solution and primary hippocampal neurons were resuspended in the mixture, electroporated in the Nucleofector™ device, and transferred to neurobasal medium with supplements and 5% (v/v) FCS. Cells were then incubated for 2 hours after which they were resuspended in medium without serum, counted, seeded and incubated for 6 hours before GDNF or GDNFp1 was added. Medium alone was added to control and cells were incubated for 18 hours.\nAll transient transfections in this study included co-transfection with a plasmid encoding EGFP, which allows the identification of transfected cells. To ensure that all EGFP-expressing cells also are transfected with the plasmid of interest, a ratio of […] between the EGFP-encoding plasmid and the plasmid of interest was used (i.e. 0.5 μg EGFP-encoding plasmid was used for each transfection).\nNeurite outgrowth experiments were terminated after the stated time by fixating the cells. To visualize neurons and their neurites, immunostaining of GAP-43 was performed. This staining is specific for neurons. Transfected cells and their neurites should be visible without immunostaining due to the fluorescence emitted by GFP. […]"}, "[3]": {"test_system": "primary hippocampal neurons", "assay": "Neurite outgrowth assay, monocultures of primary hippocampal neurons", "conditions": "monoculture, stimulated 24 hours; GDNF 1-100 ng/ml, peptides 0.1-27 μg/ml; versus medium alone", "description": "as §1, §2, §3\nFor monocultures, primary hippocampal neurons were seeded in 8-well LabTek® Permanox Chamber slides at a density of 10,000 cells/well.\nas §5\nas §6, with “GAP-43-staining. […]” for “GAP-43-staining.”"}}}
{"molecule": "B1", "values": [{"measurement": "neurite outgrowth, overall effect of treatment, neurons grown on NCAM-expressing fibroblasts", "setting": "[1]; co-culture on NCAM-expressing fibroblasts, GDNF 1-100 ng/ml, peptides 0.1-81 μg/ml", "value": "overall significant effect"}, {"measurement": "neurite outgrowth, overall effect of treatment, neurons grown on control fibroblasts", "setting": "[1]; co-culture on control fibroblasts, GDNF 1-100 ng/ml, peptides 0.1-81 μg/ml", "value": "overall significant effect"}, {"measurement": "difference between neurite outgrowth on control fibroblasts and on NCAM-expressing fibroblasts across concentrations (one-way ANOVA)", "setting": "[1]; difference per concentration, expressed as percentage of control", "value": "mean differences are not all the same"}, {"measurement": "neurite outgrowth mediated by the substance after transfection with dominant negative FGFR, on NCAM-expressing fibroblasts", "setting": "[2]; NCAM-expressing fibroblasts", "value": "decreases neurite outgrowth"}, {"measurement": "neurite outgrowth mediated by the substance after transfection with dominant negative FGFR, on control fibroblasts", "setting": "[2]; control fibroblasts", "value": "decreases neurite outgrowth"}, {"measurement": "neurite outgrowth, overall effect of treatment (one-way ANOVA)", "setting": "[3]", "value": "overall statistically significant effect"}]}
